# In IntAct's records for PubMed 28533415:
# B1: Vacuolar protein 8 (Saccharomyces cerevisiae), P39968 (parent)
# chain: MGSCCSCLKDSSDEASVSPIADNEREAVTLLLGYLEDKDQLDFYSGGPLKALTTLVYSDNLNLQRSAALAFAEITEKYVRQVSREVLEPILILLQSQDPQIQVAACAALGNLAVNNENKLLIVEMGGLEPLINQMMGDNVEVQCNAVGCITNLATRDDNKHKIATSGALIPLTKLAKSKHIRVQRNATGALLNMTHSEENRKELVNAGAVPVLVSLLSSTDPDVQYYCTTALSNIAVDEANRKKLAQTEPRLVSKLVSLMDSPSSRVKCQATLALRNLASDTSYQLEIVRAGGLPHLVKLIQSDSIPLVLASVACIRNISIHPLNEGLIVDAGFLKPLVRLLDYKDSEEIQCHAVSTLRNLAASSEKNRKEFFESGAVEKCKELALDSPVSVQSEISACFAILALADVSKLDLLEANILDALIPMTFSQNQEVSGNAAAALANLCSRVNNYTKIIEAWDRPNEGIRGFLIRFLKSDYATFEHIALWTILQLLESHNDKVEDLVKNDDDIINGVRKMADVTFERLQRSGIDVKNPGSNNNPSSNDNNSNNNDTGSEHQPVEDASLELYNITQQILQFLH
# partner: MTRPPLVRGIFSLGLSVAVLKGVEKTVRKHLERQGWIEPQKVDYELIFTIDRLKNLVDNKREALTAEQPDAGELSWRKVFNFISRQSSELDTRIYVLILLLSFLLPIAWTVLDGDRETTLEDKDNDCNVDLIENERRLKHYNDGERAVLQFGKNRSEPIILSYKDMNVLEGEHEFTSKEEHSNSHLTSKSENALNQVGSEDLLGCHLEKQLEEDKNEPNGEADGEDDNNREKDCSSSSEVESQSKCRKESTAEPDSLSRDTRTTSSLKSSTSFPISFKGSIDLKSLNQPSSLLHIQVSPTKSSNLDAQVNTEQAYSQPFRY
# B2: Vacuolar protein 8 (Saccharomyces cerevisiae), P39968 (parent)
# chain: B1 chain
# partner: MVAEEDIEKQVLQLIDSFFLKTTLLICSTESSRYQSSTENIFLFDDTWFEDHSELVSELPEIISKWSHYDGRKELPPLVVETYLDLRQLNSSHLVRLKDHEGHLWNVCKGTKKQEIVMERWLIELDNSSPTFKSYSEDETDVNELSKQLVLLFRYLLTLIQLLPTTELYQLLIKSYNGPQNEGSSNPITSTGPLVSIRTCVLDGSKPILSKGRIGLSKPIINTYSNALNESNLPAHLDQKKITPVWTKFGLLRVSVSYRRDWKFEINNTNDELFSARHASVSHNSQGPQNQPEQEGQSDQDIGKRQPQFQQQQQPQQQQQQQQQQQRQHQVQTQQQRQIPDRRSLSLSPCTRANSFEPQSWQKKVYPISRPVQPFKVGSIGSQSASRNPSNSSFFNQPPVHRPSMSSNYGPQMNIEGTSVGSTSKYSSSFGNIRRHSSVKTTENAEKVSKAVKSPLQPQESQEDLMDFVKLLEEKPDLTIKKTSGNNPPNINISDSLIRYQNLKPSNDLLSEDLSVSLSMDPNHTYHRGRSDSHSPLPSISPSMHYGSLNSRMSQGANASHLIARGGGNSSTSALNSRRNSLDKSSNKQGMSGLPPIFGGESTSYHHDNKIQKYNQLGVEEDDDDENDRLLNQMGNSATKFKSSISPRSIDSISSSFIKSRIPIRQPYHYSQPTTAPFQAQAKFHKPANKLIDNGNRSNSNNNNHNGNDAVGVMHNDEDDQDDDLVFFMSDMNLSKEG
# B3: Nucleus-vacuole junction protein 1 (Saccharomyces cerevisiae), P38881 (parent)
# chain: B1 partner
# partner: B1 chain
# Variants of: B1
# Settings: with nvj1_yeast NVJ1, P38881
row,Variant,effect of a mutation on the interaction
1,MGSCCSCLKDSSDEASVSPIADNEREAVTLLLGYLEDKDQLDFYSGGPLKALTTRVYSDNLNLQRSAALAFAEITEKYVRQVSREVLEPILILLQSQDPQIQVAACAALGNLAVNNENKLLIVEMGGLEPLINQMMGDNVEVQCNAVGCITNLATRDDNKHKIATSGALIPLTKLAKSKHIRVQRNATGALLNMTHSEENRKELVNAGAVPVLVSLLSSTDPDVQYYCTTALSNIAVDEANRKKLAQTEPRLVSKLVSLMDSPSSRVKCQATLALRNLASDTSYQLEIVRAGGLPHLVKLIQSDSIPLVLASVACIRNISIHPLNEGLIVDAGFLKPLVRLLDYKDSEEIQCHAVSTLRNLAASSEKNRKEFFESGAVEKCKELALDSPVSVQSEISACFAILALADVSKLDLLEANILDALIPMTFSQNQEVSGNAAAALANLCSRVNNYTKIIEAWDRPNEGIRGFLIRFLKSDYATFEHIALWTILQLLESHNDKVEDLVKNDDDIINGVRKMADVTFERLQRSGIDVKNPGSNNNPSSNDNNSNNNDTGSEHQPVEDASLELYNITQQILQFLH [L55R],disrupting interaction strength
2,MGSCCSCLKDSSDEASVSPIADNEREAVTLLLGYLEDKDQLDFYSGGPLKRLTTLVYSDNLNLQRSAALAFAEITEKYVRQVSREVLEPILILLQSQDPQIQVAACAALGNLAVNNENKLLIVEMGGLEPLINQMMGDNVEVQCNAVGCITNLATRDDNKHKIATSGALIPLTKLAKSKHIRVQRNATGALLNMTHSEENRKELVNAGAVPVLVSLLSSTDPDVQYYCTTALSNIAVDEANRKKLAQTEPRLVSKLVSLMDSPSSRVKCQATLALRNLASDTSYQLEIVRAGGLPHLVKLIQSDSIPLVLASVACIRNISIHPLNEGLIVDAGFLKPLVRLLDYKDSEEIQCHAVSTLRNLAASSEKNRKEFFESGAVEKCKELALDSPVSVQSEISACFAILALADVSKLDLLEANILDALIPMTFSQNQEVSGNAAAALANLCSRVNNYTKIIEAWDRPNEGIRGFLIRFLKSDYATFEHIALWTILQLLESHNDKVEDLVKNDDDIINGVRKMADVTFERLQRSGIDVKNPGSNNNPSSNDNNSNNNDTGSEHQPVEDASLELYNITQQILQFLH [A51R],disrupting interaction strength

# Variants of: B1
# Settings: with nvj1_yeast NVJ1, P38881
# Remark: another data set of the same source
row,Variant,effect of a mutation on the interaction
1,MGSCCSCLKDSSDEASVSPIADNEREAVTLLLGYLEDKDQLDFYSGGPLKALTTLVYSDNLNLQRSAALAFAEITEKYVRQVSREVLEPILILLQSQDPQIQVAACAALGNLAVNNENKLLIVEMGGLEPLINQMMGDNVEVQCNAVGCITNLATRDDNKHKIATSGALIPLTKLAKSKHIRVQRNATGALLNMTHSEENRKELVNAGAVPVLVSLLSSTDPDVQYYCTTALSNIAVDEANRKKLAQTEPRLVSKLVSLMDSPSSRVKCQATLALENLASDTSYQLEIVRAGGLPHLVKLIQSDSIPLVLASVACIENISIHPLNEGLIVDAGFLKPLVRLLDYKDSEEIQCHAVSTLENLAASSEKNRKEFFESGAVEKCKELALDSPVSVQSEISACFAILALADVSKLDLLEANILDALIPMTFSQNQEVSGNAAAALANLCSRVNNYTKIIEAWDRPNEGIRGFLIRFLKSDYATFEHIALWTILQLLESHNDKVEDLVKNDDDIINGVRKMADVTFERLQRSGIDVKNPGSNNNPSSNDNNSNNNDTGSEHQPVEDASLELYNITQQILQFLH [R276E;R317E;R359E],disrupting interaction strength

# Variants of: B2
# Settings: with atg13_yeast ATG13, Q06628
row,Variant,effect of a mutation on the interaction
1,MGSCCSCLKDSSDEASVSPIADNEREAVTLLLGYLEDKDQLDFYSGGPLKALTTLVYSDNLNLQRSAALAFAEITEKYVRQVSREVLEPILILLQSQDPQIQVAACAALGNLAVNNENKLLIVEMGGLEPLINQMMGDNVEVQCNAVGCITNLATRDDNKHKIATSGALIPLTKLAKSKHIRVQRNATGALLNMTHSEENRKELVNAGAVPVLVSLLSSTDPDVQYYCTTALSNIAVDEANRKKLAQTEPRLVSKLVSLMDSPSSRVKCQATLALENLASDTSYQLEIVRAGGLPHLVKLIQSDSIPLVLASVACIENISIHPLNEGLIVDAGFLKPLVRLLDYKDSEEIQCHAVSTLENLAASSEKNRKEFFESGAVEKCKELALDSPVSVQSEISACFAILALADVSKLDLLEANILDALIPMTFSQNQEVSGNAAAALANLCSRVNNYTKIIEAWDRPNEGIRGFLIRFLKSDYATFEHIALWTILQLLESHNDKVEDLVKNDDDIINGVRKMADVTFERLQRSGIDVKNPGSNNNPSSNDNNSNNNDTGSEHQPVEDASLELYNITQQILQFLH [R276E;R317E;R359E],disrupting interaction strength

# Variants of: B3
# Settings: with vac8_yeast VAC8, P39968
row,Variant,effect of a mutation on the interaction
1,MTRPPLVRGIFSLGLSVAVLKGVEKTVRKHLERQGWIEPQKVDYELIFTIDRLKNLVDNKREALTAEQPDAGELSWRKVFNFISRQSSELDTRIYVLILLLSFLLPIAWTVLDGDRETTLEDKDNDCNVDLIENERRLKHYNDGERAVLQFGKNRSEPIILSYKDMNVLEGEHEFTSKEEHSNSHLTSKSENALNQVGSEDLLGCHLEKQLEEDKNEPNGEADGEDDNNREKDCSSSSEVESQSKCRKESTAEPDSLSRDTRTTSSLKSSTSFPISFKGSIDLKSLNQPSSLLHRQVSPTKSSNLDRQVNTEQAYSQPERY [I295R;A307R;F319E],disrupting interaction strength
2,MTRPPLVRGIFSLGLSVAVLKGVEKTVRKHLERQGWIEPQKVDYELIFTIDRLKNLVDNKREALTAEQPDAGELSWRKVFNFISRQSSELDTRIYVLILLLSFLLPIAWTVLDGDRETTLEDKDNDCNVDLIENERRLKHYNDGERAVLQFGKNRSEPIILSYKDMNVLEGEHEFTSKEEHSNSHLTSKSENALNQVGSEDLLGCHLEKQLEEDKNEPNGEADGEDDNNREKDCSSSSEVESQSKCRKESTAEPDSLSRDTRTTSSLKSSTSFPISFKGSIDLKSLNQPSSLLHIQVSPTKSSNLDAQVNTEQAYSQPERY [F319E],disrupting interaction strength
3,MTRPPLVRGIFSLGLSVAVLKGVEKTVRKHLERQGWIEPQKVDYELIFTIDRLKNLVDNKREALTAEQPDAGELSWRKVFNFISRQSSELDTRIYVLILLLSFLLPIAWTVLDGDRETTLEDKDNDCNVDLIENERRLKHYNDGERAVLQFGKNRSEPIILSYKDMNVLEGEHEFTSKEEHSNSHLTSKSENALNQVGSEDLLGCHLEKQLEEDKNEPNGEADGEDDNNREKDCSSSSEVESQSKCRKESTAEPDSLSRDTRTTSSLKSSTSFPISFKGSIDLKSLNQPSSLLHIQVSPTESSNLDAQVNTEQAYSQPFRY [K301E],decreasing interaction strength
